Measurements: US20200277397A1 (Genmab, published 2020)
Changes are numbered by the printed parent chain. Names may count otherwise.

Experiments:
full length human 5T4 [1] = target: T1, full length human 5T4 (human, UniProt Q13641 32-420); experiment: flow cytometry, MDA-MB-231 cells, PE anti-human IgG F(ab')2, MFI PE
T1 construct: Uniprot Q13641; Used here also for endogenous 5T4 on the human tumour cell lines
T1 sequence: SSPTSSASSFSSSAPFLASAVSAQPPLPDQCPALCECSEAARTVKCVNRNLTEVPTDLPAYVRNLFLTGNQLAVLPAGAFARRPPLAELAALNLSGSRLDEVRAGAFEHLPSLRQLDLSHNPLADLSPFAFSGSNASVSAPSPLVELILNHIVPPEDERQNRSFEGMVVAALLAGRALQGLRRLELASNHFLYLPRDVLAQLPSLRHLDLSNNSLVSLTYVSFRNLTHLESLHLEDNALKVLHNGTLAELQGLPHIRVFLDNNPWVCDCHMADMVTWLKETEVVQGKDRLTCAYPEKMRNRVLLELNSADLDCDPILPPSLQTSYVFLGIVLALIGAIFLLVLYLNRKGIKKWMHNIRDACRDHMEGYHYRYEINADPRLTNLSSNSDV

[2] = target: T2, full length cynomolgus monkey 5T4 (cynomolgus monkey, UniProt Q4R8Y9 35-420); experiment: flow cytometry, HEK-293 cells transfected with cynomolgus monkey 5T4 (right panel), PE anti-human IgG F(ab')2, MFI PE
T2 construct: Uniprot Q4R8Y9; also called cynomolgus monkey 5T4 on HEK-293 cells
T2 sequence: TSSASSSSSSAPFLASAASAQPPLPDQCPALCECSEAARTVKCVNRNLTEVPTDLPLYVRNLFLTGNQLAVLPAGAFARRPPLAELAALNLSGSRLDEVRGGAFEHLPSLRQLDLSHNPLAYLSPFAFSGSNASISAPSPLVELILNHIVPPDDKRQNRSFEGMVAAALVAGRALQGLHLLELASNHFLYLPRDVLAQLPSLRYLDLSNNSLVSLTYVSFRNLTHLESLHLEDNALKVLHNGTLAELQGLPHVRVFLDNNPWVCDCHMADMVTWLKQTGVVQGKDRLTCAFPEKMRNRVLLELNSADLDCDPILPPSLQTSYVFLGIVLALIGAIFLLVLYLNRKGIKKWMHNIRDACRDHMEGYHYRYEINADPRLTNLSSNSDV

full length human 5T4 [3] = target: T1, full length human 5T4; experiment: flow cytometry, HeLa cells, PE anti-human IgG F(ab')2, MFI PE
[4] = target: T2, full length cynomolgus monkey 5T4; experiment: flow cytometry, HEK-293 cells transfected with cynomolgus monkey 5T4 (right panel), PE anti-human IgG F(ab')2, MFI PE; remark: listed apart in the source
full length human 5T4 [5] = target: T1, full length human 5T4; experiment: flow cytometry, HEK-293 cells transfected with full length human 5T4 (left panel), FITC anti-human IgG F(ab')2, MFI FITC
Method: (§1) Binding of monovalent and bivalent 5T4 antibodies was analysed using HEK-293 cells transiently transfected with full length human (left panels) or cynomolgus monkey 5T4 (right panels). Cells were incubated with increasing concentrations of antibodies, as indicated. After secondary labelling with FITC conjugated goat-anti-human IgG F(ab′)2, binding was analysed by flow cytometry. […] Data are presented as mean fluorescence intensity (MFI) values of two technical replicates±SD.
(§2) Experiments were performed in technical duplicate. After washing twice in staining buffer, cells were incubated in 50 μL secondary antibody at 4° C. for 30 min. […] Cells were washed twice in staining buffer, re-suspended in 30 μL staining buffer and analyzed on an iQue Screener (Intellicyt Corporation, USA). Binding curves were analyzed using non-linear regression (sigmoidal dose-response with variable slope) using GraphPad Prism V7.02 software (Graph Pad Software, San Diego, Calif., USA).

[6] = target: T2, full length cynomolgus monkey 5T4; experiment: flow cytometry, HEK-293 cells transfected with full length cynomolgus monkey 5T4 (right panel), FITC anti-human IgG F(ab')2, MFI FITC
Method: as §1, §2

[7] = target: T2, full length cynomolgus monkey 5T4; experiment: flow cytometry, HEK-293 cells transfected with cynomolgus monkey 5T4 (right panel), PE anti-human IgG F(ab')2, MFI PE; remark: listed apart in the source
full length human 5T4 [8] = target: T1, full length human 5T4; experiment: flow cytometry, MDA-MB-231 cells, PE anti-human IgG F(ab')2, MFI PE; remark: listed apart in the source
full length human 5T4 [9] = target: T1, full length human 5T4; experiment: flow cytometry, MDA-MB-231 cells (right panel), FITC anti-human IgG F(ab')2, MFI FITC
Method: (§3) After washing twice in staining buffer, cells were incubated in 50 μL secondary antibody at 4° C. for 30 min. […] Next, cells were washed twice in staining buffer, re-suspended in 120 μL staining buffer and analyzed on a BD LSRFortessa FACS (BD Biosciences, USA). Binding curves were analyzed using non-linear regression (sigmoidal dose-response with variable slope) using GraphPad Prism V7.02 software (GraphPad Software, San Diego, Calif., USA).

full length human 5T4 [10] = target: T1, full length human 5T4; experiment: flow cytometry, HeLa cells, PE anti-human IgG F(ab')2, MFI PE; remark: listed apart in the source
full length human 5T4 [11] = target: T1, full length human 5T4; experiment: flow cytometry, HEK-293 cells transfected with human 5T4 (left panel), PE anti-human IgG F(ab')2, MFI PE
[12] = target: T2, full length cynomolgus monkey 5T4; experiment: flow cytometry, HEK-293 cells transfected with full length cynomolgus monkey 5T4 (right panel), FITC anti-human IgG F(ab')2, MFI FITC; remark: listed apart in the source
Method: as §1, §2

full length human 5T4 [13] = target: T1, full length human 5T4; experiment: flow cytometry, HeLa cells (left panel), FITC anti-human IgG F(ab')2, MFI FITC
Method: as §3

full length human 5T4 [14] = target: T1, full length human 5T4; experiment: flow cytometry, HeLa cells, PE anti-human IgG F(ab')2, MFI PE; remark: listed apart in the source
full length human 5T4 [15] = target: T1, full length human 5T4; experiment: flow cytometry, HEK-293 cells transfected with full length human 5T4 (left panel), FITC anti-human IgG F(ab')2, MFI FITC; remark: listed apart in the source
Method: as §1, §2

[16] = target: T2, full length cynomolgus monkey 5T4; experiment: flow cytometry, HEK-293 cells transfected with full length cynomolgus monkey 5T4 (right panel), FITC anti-human IgG F(ab')2, MFI FITC; remark: listed apart in the source
Method: as §1, §2

full length human 5T4 [17] = target: T1, full length human 5T4; experiment: flow cytometry, HEK-293 cells transfected with human 5T4 (left panel), PE anti-human IgG F(ab')2, MFI PE; remark: listed apart in the source
full length human 5T4 [18] = target: T1, full length human 5T4; experiment: flow cytometry, HeLa cells (left panel), FITC anti-human IgG F(ab')2, MFI FITC; remark: listed apart in the source
Method: as §3

full length human 5T4 [19] = target: T1, full length human 5T4; experiment: flow cytometry, MDA-MB-231 cells, PE anti-human IgG F(ab')2, MFI PE; remark: listed apart in the source
[20] = target: T2, full length cynomolgus monkey 5T4; experiment: flow cytometry, HEK-293 cells transfected with cynomolgus monkey 5T4 (right panel), PE anti-human IgG F(ab')2, MFI PE; remark: listed apart in the source
full length human 5T4 [21] = target: T1, full length human 5T4; experiment: flow cytometry, MDA-MB-231 cells (right panel), FITC anti-human IgG F(ab')2, MFI FITC; remark: listed apart in the source
Method: as §3

B1: bsIgG1-huCD3-H101G-FEALx5T4-106-FEAR (bispecific antibody)
heavy 1: not shown
VL: not shown
heavy 2: EVQLVQSGAEVKKPGESLKISCKGSGYRFTSYWIGWVRQMPGKGLEWMGIIYPGDSDARYSPSFQGQVTISADKSISTAYLQWSSLKASDTGMYYCARSVLFDYWGQGTLVTVSSASTKGPSVFPLAPSSKSTSGGTAALGCLVKDYFPEPVTVSWNSGALTSGVHTFPAVLQSSGLYSLSSVVTVPSSSLGTQTYICNVNHKPSNTKVDKRVEPKSCDKTHTCPPCPAPEFEGGPSVFLFPPKPKDTLMISRTPEVTCVVVAVSHEDPEVKFNWYVDGVEVHNAKTKPREEQYNSTYRVVSVLTVLHQDWLNGKEYKCKVSNKALPAPIEKTISKAKGQPREPQVYTLPPSREEMTKNQVSLTCLVKGFYPSDIAVEWESNGQPENNYKTTPPVLDSDGSFFLYSRLTVDKSRWQQGNVFSCSVMHEALHNHYTQKSLSLSPGK
light: AIQLTQSPSSLSASVGDRVTITCRASQGISSALAWYQQKPGKAPKLLIYDVSNLESGVPSRFSGSGSGTDFTLTISSLQPEDFATYYCQQFNSYPHTFGQGTKLEIKRTVAAPSVFIFPPSDEQLKSGTASVVCLLNNFYPREAKVQWKVDNALQSGNSQESVTEQDSKDSTYSLSSTLTLSKADYEKHKVYACEVTHQGLSSPVTKSFNRGEC
Full length human 5T4 [1]
  EC50 (read off the curve): ~0.1 µg/mL
[2]
  binding result: binds
Full length human 5T4 [3]
  EC50 (read off the curve): ~0.1 µg/mL

B2: IgG1-5T4-076-FEAR (antibody, V domains shown)
VH: QVQLVQSGAEVKKPGASVKVSCKASGYTFTSYGISWVRQAPGQGLEWMGWISAYNGNTNYAQKLQGRVTMTTDTSTRTAYMELRSLRSDDTAVYYCARDPGYFDWLYGDYWGQGTLVTVSS
VL: AIQLTQSPSSLSASVGDRVTITCRASQGISSALAWYQQKPGKAPKLLIYDASSLESGVPSRFSGSGSGTDFTLTISSLQPEDFATYYCQQFNSYPRTFGQGTKVEIKR
notes: Human IgG1 FEAR, kappa (as for m12)
[4]
  EC50 (read off the curve): ~0.01 µg/mL

B3: bsIgG1-huCD3-H101G-FEALx5T4-H8-FEAR (bispecific antibody)
heavy 1: not shown
VL 1: not shown
heavy 2: EVQLQQSGPDLVKPGASVKISCKASGYSFTGYYMHWVKQSHGKSLEWIGRINPNNGVTLYNQKFKDKAILTVDKSSTTAYMELRSLTSEDSAVYYCARSTMITNYVMDYWGQVTSVTVSSASTKGPSVFPLAPSSKSTSGGTAALGCLVKDYFPEPVTVSWNSGALTSGVHTFPAVLQSSGLYSLSSVVTVPSSSLGTQTYICNVNHKPSNTKVDKRVEPKSCDKTHTCPPCPAPEFEGGPSVFLFPPKPKDTLMISRTPEVTCVVVAVSHEDPEVKFNWYVDGVEVHNAKTKPREEQYNSTYRVVSVLTVLHQDWLNGKEYKCKVSNKALPAPIEKTISKAKGQPREPQVYTLPPSREEMTKNQVSLTCLVKGFYPSDIAVEWESNGQPENNYKTTPPVLDSDGSFFLYSRLTVDKSRWQQGNVFSCSVMHEALHNHYTQKSLSLSPGK
VL 2: SIVMTQTPTFLLVSAGDRVTITCKASQSVSNDVAWYQQKPGQSPTLLISYTSSRYAGVPDRFIGSGYGTDFTFTISTLQAEDLAVYFCQQDYNSPPTFGGGTKLEIK
Full length human 5T4 [5]
  binding result: binds
[6]
  EC50 (read off the curve): ~0.1 µg/mL

B4: IgG1-5T4-207-FEAR (antibody, V domains shown)
VH: QVQLQQWGAGLLKPSETLSLTCAVYGGSFSGYYWTWIRQPPGKGLEWIGEIDHSESTNYNPSLKSRVTISVDTSKNQFSLKLSSVTAADTAVYYCAGWFGELYHYYYGMDVWGQGTTVTVSS
VL: EIVLTQSPATLSLSPGERATLSCRASQSVSSYLAWYQQKPGQAPRLLIYDASNRATGIPARFSGSGSGTDFTLTISSLEPEDFAVYYCQQRSNWPLTFGGGTKVEIKR
notes: as for B2
[7]
  EC50 (read off the curve): ~0.1 µg/mL
Full length human 5T4 [8]
  EC50 (read off the curve): ~0.02 µg/mL

B5: bsIgG1-huCD3-H101G-FEALx5T4-207-FEAR (bispecific antibody)
heavy 1: not shown
VL: not shown
heavy 2: QVQLQQWGAGLLKPSETLSLTCAVYGGSFSGYYWTWIRQPPGKGLEWIGEIDHSESTNYNPSLKSRVTISVDTSKNQFSLKLSSVTAADTAVYYCAGWFGELYHYYYGMDVWGQGTTVTVSSASTKGPSVFPLAPSSKSTSGGTAALGCLVKDYFPEPVTVSWNSGALTSGVHTFPAVLQSSGLYSLSSVVTVPSSSLGTQTYICNVNHKPSNTKVDKRVEPKSCDKTHTCPPCPAPEFEGGPSVFLFPPKPKDTLMISRTPEVTCVVVAVSHEDPEVKFNWYVDGVEVHNAKTKPREEQYNSTYRVVSVLTVLHQDWLNGKEYKCKVSNKALPAPIEKTISKAKGQPREPQVYTLPPSREEMTKNQVSLTCLVKGFYPSDIAVEWESNGQPENNYKTTPPVLDSDGSFFLYSRLTVDKSRWQQGNVFSCSVMHEALHNHYTQKSLSLSPGK
light: not shown
Full length human 5T4 [9]
  EC50 (read off the curve): ~0.1 µg/mL
[7]
  EC50 (read off the curve): ~0.03 µg/mL
Full length human 5T4 [10]
  EC50 (read off the curve): ~0.04 µg/mL
Full length human 5T4 [11]
  EC50 (read off the curve): ~0.05 µg/mL
Full length human 5T4 [8]
  EC50 (read off the curve): ~0.04 µg/mL
[12]
  EC50 (read off the curve): ~0.1 µg/mL
Full length human 5T4 [13]
  EC50 (read off the curve): ~0.05 µg/mL

B6: bsIgG1-huCD3-H101G-FEALx5T4-226-FEAR (bispecific antibody)
heavy 1: not shown
VL: not shown
heavy 2: B5 heavy 2 with T35S, E55G, G97A, Y103W, H104D
light: not shown
Full length human 5T4 [14]
  EC50 (read off the curve): ~0.04 µg/mL
Full length human 5T4 [15]
  EC50 (read off the curve): ~0.2 µg/mL
[16]
  EC50 (read off the curve): ~0.1 µg/mL
Full length human 5T4 [17]
  EC50 (read off the curve): ~0.09 µg/mL
Full length human 5T4 [18]
  EC50 (read off the curve): ~0.02 µg/mL
Full length human 5T4 [19]
  EC50 (read off the curve): ~0.04 µg/mL
[20]
  EC50 (read off the curve): ~0.06 µg/mL
Full length human 5T4 [21]
  EC50 (read off the curve): ~0.09 µg/mL
